Test results reported in EP2488198B1 (Rutgers, the State University of New Jersey, dated 2016).

Target: T1, leukocyte function antigen-1 (LFA-1), composed of CD11a and CD18, on the surface of white blood cells (human, UniProt P20701 26-1170; P05107 23-769)
T1 construct: whole, on cells; also called CD11a/CD18; wild type form of the receptor
Experiment: flow cytometry, THP-1 cells mixed with LtxA-FITC for 30 min at 0 C

T1 sequence (P20701 26-1170, chain 1 of 2): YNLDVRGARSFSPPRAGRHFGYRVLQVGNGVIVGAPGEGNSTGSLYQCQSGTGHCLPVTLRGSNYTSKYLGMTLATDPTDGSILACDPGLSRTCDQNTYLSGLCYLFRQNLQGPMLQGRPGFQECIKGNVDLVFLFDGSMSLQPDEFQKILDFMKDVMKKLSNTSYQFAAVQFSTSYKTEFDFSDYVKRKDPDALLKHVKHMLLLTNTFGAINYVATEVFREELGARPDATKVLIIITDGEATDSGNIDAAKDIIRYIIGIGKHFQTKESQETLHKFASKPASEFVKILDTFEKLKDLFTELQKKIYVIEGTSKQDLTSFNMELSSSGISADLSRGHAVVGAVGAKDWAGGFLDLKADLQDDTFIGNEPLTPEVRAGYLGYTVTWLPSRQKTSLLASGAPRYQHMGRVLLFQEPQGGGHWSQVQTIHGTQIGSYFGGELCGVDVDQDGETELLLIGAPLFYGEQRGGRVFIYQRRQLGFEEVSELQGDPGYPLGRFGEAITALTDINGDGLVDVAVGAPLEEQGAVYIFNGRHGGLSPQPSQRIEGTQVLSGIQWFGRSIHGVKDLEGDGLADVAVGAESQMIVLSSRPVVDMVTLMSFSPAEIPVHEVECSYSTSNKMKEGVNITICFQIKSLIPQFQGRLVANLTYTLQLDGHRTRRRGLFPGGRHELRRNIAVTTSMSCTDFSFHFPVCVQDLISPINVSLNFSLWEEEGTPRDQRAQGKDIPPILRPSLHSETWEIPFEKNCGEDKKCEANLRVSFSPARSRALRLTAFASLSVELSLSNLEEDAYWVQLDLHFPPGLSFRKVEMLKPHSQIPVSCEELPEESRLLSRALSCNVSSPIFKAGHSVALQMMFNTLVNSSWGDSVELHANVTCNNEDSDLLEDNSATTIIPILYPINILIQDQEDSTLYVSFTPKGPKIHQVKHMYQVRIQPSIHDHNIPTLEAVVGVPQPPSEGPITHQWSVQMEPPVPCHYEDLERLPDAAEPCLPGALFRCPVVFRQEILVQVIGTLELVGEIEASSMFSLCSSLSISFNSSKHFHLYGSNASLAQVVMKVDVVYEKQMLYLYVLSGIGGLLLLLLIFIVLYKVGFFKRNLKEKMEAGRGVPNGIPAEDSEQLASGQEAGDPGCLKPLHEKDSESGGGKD
T1 sequence (P05107 23-769, chain 2 of 2): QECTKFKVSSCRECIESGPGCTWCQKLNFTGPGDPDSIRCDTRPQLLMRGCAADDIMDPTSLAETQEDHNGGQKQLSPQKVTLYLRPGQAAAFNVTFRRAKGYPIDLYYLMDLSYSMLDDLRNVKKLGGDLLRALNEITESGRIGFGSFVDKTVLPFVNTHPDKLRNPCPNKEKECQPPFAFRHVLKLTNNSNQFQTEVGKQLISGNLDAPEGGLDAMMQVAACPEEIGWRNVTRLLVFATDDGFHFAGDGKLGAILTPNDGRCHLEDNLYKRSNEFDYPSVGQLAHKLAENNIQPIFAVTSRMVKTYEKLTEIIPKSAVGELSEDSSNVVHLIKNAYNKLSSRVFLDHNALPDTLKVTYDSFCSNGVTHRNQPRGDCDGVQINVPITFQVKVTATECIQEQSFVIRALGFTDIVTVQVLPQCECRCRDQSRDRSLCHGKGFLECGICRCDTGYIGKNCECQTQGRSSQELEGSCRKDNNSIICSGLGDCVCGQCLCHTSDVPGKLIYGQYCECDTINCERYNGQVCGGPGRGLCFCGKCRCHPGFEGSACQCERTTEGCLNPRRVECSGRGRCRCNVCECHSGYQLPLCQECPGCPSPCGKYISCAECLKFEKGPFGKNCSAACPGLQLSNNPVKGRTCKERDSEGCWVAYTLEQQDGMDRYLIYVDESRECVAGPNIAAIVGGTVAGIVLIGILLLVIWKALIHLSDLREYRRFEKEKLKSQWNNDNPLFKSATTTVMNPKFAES

B1: LtxA covalently labeled with fluorescein isothiocyanate (LtxA-FITC) (other)
chain: MATTSLLNTKQQAAQFANSVADRAKENIDAAKEQLQKALDKLGKTGKKLTLYIKNYKKGNGLTALIKAAQKLGIEVYHEGKDGPALTNGILNTGKKLLGLTERGLTLFAPELDKWIQGNKHLSNSVGSTGNLTKAIDKVQSVLGTLQAFLNTAFSGMDLDALIKARQNGKNVTDVQLAKASLNLINELIGTISSITNNVDTFSKQLNKLGEALGQVKHFGSFGDKLKNLPKLGNLGKGLGALSGVLSAISAALLLANKDADTATKAAAAAELTNKVLGNIGKAITQYLIAQRAAAGLSTTGPVAGLIASVVSLAISPLSFLGIAKQFDRARMLEEYSKRFKKFGYNGDSLLGQFYKNTGIADAAITTINTVLSAIAAGVGAASAGSLVGAPIGLLVSAITSLISGILDASKQAVFEHIANQLADKIKAWENKYGKNYFENGYDARHSAFLEDSLKLFNELREKYKTENILSITQQGWDQRIGELAGITRNGDRIQSGKAYVDYLKKGEELAKHSDKFTKQILDPIKGNIDLSGIKGSTTLTFLNPLLTAGKEERKTRQSGKYEFITELKVKGRTDWKVKGVPNSNGVYDFSNLIQHAVTRDNKVLEARLIANLGAKDDYVFVGSGSTIVNAGDGYDVVDYSKGRTGALTIDGRNATKAGQYKVERDLSGTQVLQETVSKQETKRGKVTDLLEYRNYKLDYYYTNKGFKAHDELNSVEEIIGSTLRDKFYGSKFNDVFHGHDGDDLIYGYDGDDRLYGDNGNDEIHGGQGNDKLYGGAGNDRLFGEYGNNYLDGGEGDDHLEGGNGSDILRGGSGNDKLFGNQGDDLLDGGEGDDQLAGGEGNDIYVYRKEYGHHTITEHSGDKDKLSLANINLKDVSFERNGNDLLLKTNNRTAVTFKGWFSKPNSSAGLDEYQRKLLEYAPEKDRARLKRQFELQRGKVDKSLNNKVEEIIGKDGERITSQDIDNLFDKSGNKKTISPQELAGLIKNKGKSSSLMSSSRSSSMLTQKSGLSNDISRIISATSGFGSSGKALSASPLQTNNNFNSYANSLATTAA
modifications: covalently labeled with fluorescein isothiocyanate (FITC); sites not stated
notes: also called leukotoxin-FITC
B1: binds.
